Where a chain is given by its changes, count along the chain named. Numbers in names are those of the source.

Assay [1] addresses T1, eIF4A/eIF4G_mid complex (Saccharomyces cerevisiae, UniProt P10081).
T1 sequence (P10081 1-395): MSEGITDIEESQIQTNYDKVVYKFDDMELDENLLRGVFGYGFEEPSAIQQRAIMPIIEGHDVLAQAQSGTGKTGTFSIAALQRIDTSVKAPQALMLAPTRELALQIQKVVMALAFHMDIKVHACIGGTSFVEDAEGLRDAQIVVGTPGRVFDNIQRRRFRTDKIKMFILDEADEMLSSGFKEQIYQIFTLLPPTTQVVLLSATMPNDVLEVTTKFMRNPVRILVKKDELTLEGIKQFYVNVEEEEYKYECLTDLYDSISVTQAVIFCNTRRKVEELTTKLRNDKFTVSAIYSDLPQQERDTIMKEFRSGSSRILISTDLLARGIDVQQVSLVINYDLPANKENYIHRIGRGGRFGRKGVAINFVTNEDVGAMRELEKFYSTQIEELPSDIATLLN
T1 sequence (P39935 572-853 K590R partner): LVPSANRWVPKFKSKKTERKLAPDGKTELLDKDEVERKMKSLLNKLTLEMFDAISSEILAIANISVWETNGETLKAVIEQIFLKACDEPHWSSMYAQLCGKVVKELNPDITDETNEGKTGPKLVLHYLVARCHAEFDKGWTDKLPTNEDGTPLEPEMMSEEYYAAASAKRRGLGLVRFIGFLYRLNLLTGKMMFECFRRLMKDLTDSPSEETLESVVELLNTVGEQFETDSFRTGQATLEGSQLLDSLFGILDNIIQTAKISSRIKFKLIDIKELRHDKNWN
Put plainly: ITC or competitive titration. Type of assay: binding. Conditions: pH 7.5, 80 mM KCl, Mg2+; eIF4G_mid present.

In assay [2] the target is T2, eIF4A (Saccharomyces cerevisiae, UniProt P10081).
T2 sequence (P10081 1-395): T1 sequence (P10081 1-395)
As to the kind of experiment: ITC or competitive titration. The assay is classed as binding. Particulars: pH 7.5, 80 mM KCl, Mg2+; without eIF4G.

Assay [3] addresses eIF4G_mid (aa 572–853 of eIF4G, middle domain) (yeast) (UniProt P39935). As to the kind of experiment: ITC. For orientation: Isothermal titration calorimetry measures the heat released or taken up as one component is titrated into another.
In assay [4] the target is T2, eIF4A. As to the kind of experiment: competitive titration of the mantADP/protein complex, or ITC. The assay is classed as binding. Particulars: pH 7.5, 80 mM KCl, Mg2+; without eIF4G.
Assay [5] addresses T1, eIF4A/eIF4G_mid complex. The assay is described as above. The assay is classed as binding. Conditions: pH 7.5, 80 mM KCl, Mg2+; eIF4G_mid present.
Assay [6] addresses T3, eukaryotic translation initiation factor 4A (eIF4A) (yeast, UniProt P10081 1-395).
T3 sequence (looked up): T1 sequence (P10081 1-395)
Put plainly: ITC.

In another assay the target is T4, eIF4A_E43R (yeast, UniProt P10081 1-395, E43R).
T4 sequence (looked up): T1 sequence (P10081 1-395) with E43R
As to the kind of experiment: ITC.

Regarding `Nc1ncnc2c1ncn2[C@@H]1O[C@H](COP(=O)(O)OP(=O)(O)OP(=O)(O)O)[C@@H](O)[C@H]1O` [ATP], the Kd (usually the concentration at which binding is half-saturated) on eIF4A/eIF4G_mid complex [1] is “the affinity of eIF4A for ADP and ATP is moderately decreased in the presence of eIF4G”; on eIF4A [2], “the affinity of eIF4A for ADP and ATP is moderately decreased in the presence of eIF4G”. In the case of “eIF4A-RecA_C (aa 226-406) (domain or fragment)”, the Kd in assay [3] stood at 1300 nM. Consider `Nc1ncnc2c1ncn2[C@@H]1O[C@H](COP(=O)(O)OP(=O)(O)O)[C@@H](O)[C@H]1O` [ADP], for which the Kd result was “the affinity of eIF4A for ADP and ATP is moderately decreased in the presence of eIF4G” on eIF4A [4]; “the affinity of eIF4A for ADP and ATP is moderately decreased in the presence of eIF4G” on eIF4A/eIF4G_mid complex [5].

B1: eIF4G_K831E/S834D/R835E (domain or fragment, yeast, UniProt P39935 572-853, looked up)
chain: T1 sequence (P39935 572-853 K590R partner) with K260E, S263D, R264E
The molecule B1 yielded a Kd in assay [6] of 1100 ± 100 nM.

B2: eIF4G_mid (aa 572–853 of eIF4G, middle domain) (domain or fragment, yeast, UniProt P39935 572-853, looked up)
chain: T1 sequence (P39935 572-853 K590R partner)
As for B2, the Kd stood at 600 ± 100 nM in assay [6] and 200 ± 20 nM with eIF4A_E43R.

B3: eIF4G_R835E (domain or fragment, yeast, UniProt P39935 572-853, looked up)
chain: T1 sequence (P39935 572-853 K590R partner) with R264E
With B3, the Kd in assay [6] is 1000 ± 100 nM.

(Values after paper PMC3064780 (Nucleic Acids Research, 2010).)
